# Test: yeast display, Sf9 membrane polyspecificity reagent, FACS + sequencing; frameworks hold sequencing errors
# How it was run: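 Polyreactivity labels are assigned by the sorting gate from which each nanobody was recovered. The gates were low and high (top ~1%), set on anti-HA fluorescence for expression and streptavidin fluorescence for reagent binding. Before sorting, galactose-induced (36–48 hours) yeast display cells were stained for 1 hour at 4 °C with 10% biotinylated, detergent-solubilized Sf9 membrane reagent.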
row,Sequence,polyreactivity (PSR sort gate)
1,QVQLVESGGGLVQAGGSLRLSCAASGFIFYRNTMGWYRQAPGKERELVATISRRGGSTYYADSVKGRFTISRDNAKHTVYLQMNSLKPEDTAVYYCNADQEYSRPRYGMDYWGQGTQVTVSS,high polyreactivity
2,QVQLVESGGGLVQAGGSLRLSCAASGFIFYRYAMGWYRQAPGKERELVAAISYSGGSTYYADSVKGRFTISRDNAKNTVYLQMNSLKPEDTAVYYCAKGLTALGDYWGQGTQVTVSS,high polyreactivity
3,QVQLVESGGGLVQAGGSLRLSCAASGFIFYRYAMGWYRQQPGKERELVAAISSRGGTTYYADSVKWRFTISRDNAKNTVYLQMNSLKPEDTAVYYCAADRGYKMGYWLQGTQVTVSS,high polyreactivity
4,QVQLVESGGGLVQAGGSLRLSCAASGFIFYRYTMGWYRPAPGKERELVASITWSDGSTSYADSVNGRFTISRDNAKNTVYLQMNSLKPEDTAVYYCAADVSYQVIYEYDYSGQGTQVTVSS,low polyreactivity
5,QVQLVESGGGLVQAGGSLRLSCAASGFIFYRYTMGWYRQAPGKERELVAAITSAGSTYYADSVKGRFTISRDNAKNTVYLQMNSLKPEDTAVYYCNADSTWGGYGFDYWGQGTQVTVSS,low polyreactivity
6,QVQLVESGGGLVQAGGSLRLSCAASGFIFYRYTMGWYRQAPGKERELVAGISSRGTRTYYADSVKGRFTISRDNAKNTVYLQMNSLKPEDTAVYYCAAVLTQPKKVNYWGQGTQVTVSS,high polyreactivity
7,QVQLVESGGGLVQAGGSLRLSCAASGFIFYRYVMGWFRQAPGKERELVAAISGRGGSTYYADSVKGRFTISRDNAKNTVYLQMNSLTPEDTAVYYCNRLVYRAAGGPMDYWGQGTQVTVSS,high polyreactivity
8,QVQLVESGGGLVQAGGSLRLSCAASGFIFYSNAMGWYRQAPGKERELVAAISRGGGSTYYADSVKGRFTISRDNAKNTVYLQMNSLKPEDTAVYYCAAELYRWYYYWGQGTQVTVSS,high polyreactivity
9,QVQLVESGGGLVQAGGSLRLSCAASGFIFYSNAMGWYRQAPGKERELVAAISWDAGSTYYADSVKGRFTISRDNAKNTVYLQMNSLKPEDTAVYYCATDRIVGRYIYNNWGQGTQVTVSS,high polyreactivity
10,QVQLVESGGGLVQAGGSLRLSCAASGFIFYSNMGWYRQARGKEREFVAAITWRGGSTYADSVKGRFTISRDNAKNTVYLQMNSLKPEDTAVYYCARESYRAHTPGHPSGTRFGYWGQGTQVTVSS,high polyreactivity
11,QVQLVESGGGLVQAGGSLRLSCAASGFIFYTYAMGWYRQAPGKERELGADITSGGSTYYADSVKGRFTISRDNAKNTVYLQMNSLKPEDTAVYYCAADPGYPANRTEWRDFDYWGQGTQVTVSS,low polyreactivity
12,QVQLVESGGGLVQAGGSLRLSCAASGFIFYVYAMGWYRQAPGKERELVATITSGGSTNYADSVKGRFTISRDNAKNTVYLQMNSLKPEDTAVYYCAADGWQSQYEYDYWGQGTQVTVSS,low polyreactivity
13,QVQLVESGGGLVQAGGSLRLSCAASGFIFYWYAMGWYRQAPWKEREFVAAISSSGGNTSYADSVKGRFTISRDNAKNTVYLQMNSLKPEVTAVYYCAATSRAFYRSLYYYWGQGTQVTVSS,low polyreactivity
14,QVQLVESGGGLVQAGGSLRLSCAASGFIFYYNAMGWYRQAPGKERELVAAISSRGGSTYYADSVKGRFTISRDNAKNTVYLQMNSLKPEDTAVYYCNAKRYFRNHFRTGGMYYWGQGTQVTVSS,high polyreactivity
15,QVQLVESGGGLVQAGGSLRLSCAASGFIFYYNAMGWYRQAPGKERELVAGISRSAGSTYYADSVKGRFTISRDNAKNTVYLQMNSLKPEDTAVYYCNAEVYGGRYYVDMYYWGQGTQVTVSS,low polyreactivity
16,QVQLVESGGGLVQAGGSLRLSCAASGFIFYYYAMGWYRQAPGKEREFVAGISRSGGSTYYADSVKGRFTISRDNAKNTVYLQMKSLKPEDTAVYYCAARYVQHKIYRLAQGEYWGQGTQVTVSS,high polyreactivity
17,QVQLVESGGGLVQAGGSLRLSCAASGFIFYYYAMGWYRQAPGKERELVAAISTSGGSTYYADSVKGRFTISRDNAKNTVYLQMNSLKPEDTAVYYCAAKIIGRPRTTDRYDYWGQGTQVTVSS,low polyreactivity
18,QVQLVESGGGLVQAGGSLRLSCAASGFIFYYYAMGWYRQAPGKERELVAAISWSGARTYYADSVKGRFTISRDNAKNTVYLQMNSLKPEDTAVYYCNAVAFYPRSSRSWRLDYWGQGTQVTVSS,high polyreactivity
19,QVQLVESGGGLVQAGGSLRLSCAASGFIFYYYAMGWYRQAPGKERELVAAISWSGGITYYADSVKGRFTISRDNAKNTVYLQMNSLKPEDTAVYYCNAVSSGDMDYWGQGTQVTVSS,high polyreactivity
20,QVQLVESGGGLVQAGGSLRLSCAASGFIFYYYAMGWYRQAPGKERELVAAISWSGGRTYYADSVKGRFTISRDNAKNTVYLQMNSLKPEDTAVYYCAAVGYSKRYIYWGQGTQVTVSS,high polyreactivity
21,QVQLVESGGGLVQAGGSLRLSCAASGFIFYYYAMGWYRQAPGKERELVAAITQGGGSTYYADSVKGRFTISRDNAKNTVYLQMNSLKPEDTAVYYCAAVKRVYAHSRAFSSDFYYWGQGTQVTVSS,high polyreactivity
22,QVQLVESGGGLVQAGGSLRLSCAASGFIFYYYDMGWYRQAPGKERELVAAITYDGGSTYYADSVKGRFTISRDNAKNTVYLQMNSLKPEDTAVYYCNAVYGQYYDYWGQGTQVTVSS,low polyreactivity
23,QVQLVESGGGLVQAGGSLRLSCAASGFIFYYYTMGWYRQEPGKEREFVAAITYSGGRTYYADSVKGRFTISRDNAKNTVYLQMNSLKPEDTAVYYCAVALFETGHYYWGQGTQVTVSS,high polyreactivity
24,QVQLVESGGGLVQAGGSLRLSCAASGFIIANNAMGWYRQAPGKERELVASIRTRGGSTYYADSVKGRFTISRDNAKNTVYLQMNSLKPEDTAVYYSAARPFPRRYDYWGQGTQVTVSS,low polyreactivity
25,QVQLVESGGGLVQAGGSLRLSCAASGFIIAYYAMGWYRQAPGKEREWVAAITSDGGSTYYADSVKGRFTISRDNAKNTVYLQMNSLKPEDTAVYYCAAQGYPYGRLWGGYYRYDYWGQGTQVTVSS,high polyreactivity
26,QVQLVESGGGLVQAGGSLRLSCAASGFIIGFNAMGWYRQAPGKERELVAAISGSGGRTYYADSVKGRFTISRDNAKNTVYLQMNSLKPEDTAVYYCAKVGYKSPYLYSQHYTGFGYWGQGTQVTVSS,high polyreactivity
27,QVQLVESGGGLVQAGGSLRLSCAASGFIIGRNAMGWYRQAPGKERELVAAMSTSGASTYYADSVKGRFTISRDNAKNTVYFQMNSLKPEDTAVYYCAARRPVWDGRGSGYDYWGQGTQVTVSS,low polyreactivity
28,QVQLVESGGGLVQAGGSLRLSCAASGFIIGVYAMGWYRQAPGKEREFVAAISLTGGSTSYADSVKGLFTISRDNAKNTVYLQMNSLKREDTAVYYCAADAWFWVRWGENYWGQGTQVTVSS,low polyreactivity
29,QVQLVESGGGLVQAGGSLRLSCAASGFIIGYYAMGWYRQAPGKVREFVAAISRSGGSTYYADSVKGRFTISRDNAKNTVYLQMNSLKPEDTSVYYCAADYQKTYTSKFNYWGQGTQVTVSS,high polyreactivity
30,QVQLVESGGGLVQAGGSLRLSCAASGFIIKVYAMGWYRQAPGKERELVAAITWSGGSTYYADSVKGRFTISRDNAKNTVYLQMNSLKPEDTAVYYCAADTYYPDWITYPQGDFDYWGQGTQVTVSS,low polyreactivity

# — the nanobody polyreactivity screen of Harvey et al. (2022)
